Measurements reported in patent US20030147883A1.

Key:
[1] = biological target: FPR-like receptor 1 (FPRL1) (UniProt P25090); test: cell-based or functional assay
[2] = biological target: Epitope tagged high affinity fMLP receptor FPR (on ETFR cells) (UniProt P21462); test: cell-based or functional assay
Epitope tagged high affinity fMLP receptor FPR (on ETFR cells), sequence (P21462 whole entry): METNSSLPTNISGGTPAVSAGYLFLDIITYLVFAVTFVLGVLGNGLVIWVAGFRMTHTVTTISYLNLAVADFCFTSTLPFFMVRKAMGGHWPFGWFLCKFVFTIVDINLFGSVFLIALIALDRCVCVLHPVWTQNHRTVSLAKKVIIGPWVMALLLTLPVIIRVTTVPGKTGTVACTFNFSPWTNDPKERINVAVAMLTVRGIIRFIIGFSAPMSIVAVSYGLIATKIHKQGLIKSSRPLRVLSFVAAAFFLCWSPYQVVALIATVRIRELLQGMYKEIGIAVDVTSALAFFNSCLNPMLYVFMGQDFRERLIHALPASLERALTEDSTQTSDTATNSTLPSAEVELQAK

FPR-like receptor 1 (FPRL1), sequence (P25090 whole entry): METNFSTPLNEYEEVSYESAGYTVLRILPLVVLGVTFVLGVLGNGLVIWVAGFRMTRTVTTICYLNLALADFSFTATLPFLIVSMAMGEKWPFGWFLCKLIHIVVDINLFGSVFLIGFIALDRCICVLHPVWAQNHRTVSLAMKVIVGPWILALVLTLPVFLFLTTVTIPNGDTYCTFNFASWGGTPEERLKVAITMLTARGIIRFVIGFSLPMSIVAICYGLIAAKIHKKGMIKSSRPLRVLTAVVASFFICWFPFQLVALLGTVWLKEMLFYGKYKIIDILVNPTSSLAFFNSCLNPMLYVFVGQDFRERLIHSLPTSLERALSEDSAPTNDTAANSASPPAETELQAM

**Q.** “N-formyl-methionyl-leucyl-phenylalanine (fMLP) (peptide)” was tested. Which cross-desensitization of Ca^2+ flux in FPRL1/293 cells [1] did it give?
**A.** 100000 fold excess

**Q.** And the Ca^2+ mobilization in ETFR cells, minimal effective dose [2]?
**A.** 100 pM
